In the DeepSol protein solubility set:

Test: soluble on expression in E. coli; label from the status in PepcDB or PDB records
With “MNEADMLFSVTVPGSTANLGPGFDSVGMALSRYLKLTVFESDKWSFEAETETVAGIPAGTDNLIYQVAKRTADLYGKEMPPVHVKVWSDIPLARGLGSSAAAIVAAIELADELCGLKLSEADKLHLASLEEGHPDNAGASLVGGLVIGLHEDDETQMIRVPNADIDVVVVIPFYEVLTRDARDVLPKEFPYADAVKASAVSNILIAAIMSKDWPLVGKIMKKDMFHQPYRAMLVPELSKVEHVAEMKGAYGTALSGAGPTILVMTEKGKGEELKEQLALHFPHCEVDALTVPKEGSIIERNPLYQVKSV” the “soluble on expression in E. coli” value was “not soluble”.
With “QYFTGGLSLEPSNQAGFSQSQSASNTAAQDENAQFVAAILGTTETVWNQLLQGQYVEPKLVLYRNMTSTGCGMGQAQSGPFYCPADGKVYIDLSFLEELKKLGASGDFAFAYVIAHEVGHHVQNLLGTSTKVRQAQQAAGKAQANQLSVALELQADCYAGVWGHYVDRQLNLLEPGDVEEGIAAASAVGDDRLQKMAGRAVQPEAFTHGSSADRVKWFNIGFASGKPASCNTF” the “soluble on expression in E. coli” value was “not soluble”.
With “MEEDSIHLPTHLRLQPIYWSRDDVAQWLKWAENEFSLRPIESNKFEMNGKALLLLTKEDFRYRSPHSGDVLYELLQHILKQRKSRMLFSPFFPPGDSIHTKPEVLLHQNHDEDNCVQRTPRTPAESVHHNPPTIELLHRPRSPITTNHRPSPDPEQQRPQRSPLDNMSRRLSPVEKAQGPRLQQENNHQETYPLSVSPVENNHCLPSSPWQESTRVIQLMPSPIMHPLILNPRHSHSVDFKQSRHSEDGMNREGKPINLSHREDLAYLNHIMVSMSPPEEHAMPIGRIADCRLLWDYVYQLLSDSRYENFIRWEDKESKIFRIVDPNGLARLWGNHKNRTNMTYEKMSRALRHYYKLNIIRKEPGQRLLFRFMKTPDEIMSGRTDRLEHLESQVLDEQTYQEDEPTIASPVGWPRGNLPTGTAGGVMEAGELGVAVKEETRE” the “soluble on expression in E. coli” value was “soluble”.
In the case of “MGSDKIHHHHHHMTKLMPKFEQHRTDFAYCQTITKRSSSAFYTAFSQLPLERAWSIYAVYAFCRTADDLVDVDHDIDGLMALRQSLTTFANGHVPDHPMWRALAVVFETYDMNLDVFFDMLTGQEQDATFKQPQTQQALEDYCYYVAGSVGLMILPMLATNPQSLVKPAVELGSAMQLTNILRDVGEDYQRGRIYLPSKLLAHYQLNPTDLHGPIPSANFIRLWEHEAQIAMNKYEAALTMMPQIDPVARPSLLAATLLYRELLLIAREQHYPILSQRVFLTDERKTQVLNQVSTKVHELALKEA”, the “soluble on expression in E. coli” value is reported as “not soluble”.
In the case of “MIKAIFTRQKNGQLSSVTLTGHAGSGKHGFDIVCASVSTLAINFVNSLEVLADCQALVDLNDVEGGYMAITIPPHDNKEEVQLLFESFLLGMTSLAKDSSKFVNTQVI”, the “soluble on expression in E. coli” value is reported as “not soluble”.
For “MSLTTLHFSGFPRVGAFRELKFAQEKYWRKEISEQELLAVAKDLREKNWKHQVAANADFVAVGDFTFYDHILDLQVATGAIPARFGFDSQNLSLEQFFQLARGNKDQFAIEMTKWFDTNYHYLVPEFHADTEFKANAKHYVQQLQEAQALGLKAKPTVVGPLTFLWVGKEKGAVEFDRLSLLPKLLPVYVEILTALVEAGAEWIQIDEPALAVDLPKEWVEAYKDVYATLSKVSAKILLSTYFGSVAEHAALLKALPVDGLHIDLVRAPEQLDAFADYDKVLSAGVIDGRNIWRANLNKVLETVEPLQAKLGDRLWISSSCSLLHTPFDLSVEEKLKANKPDLYSWLAFTLQKTQELRVLKAALNEGRDSVAEELAASQAAADSRANSSEIHRADVAKRLADLPANADQRKSPFADRIKAQQAWLNLPLLPTTNIGSFPQTTEIRQARSAFKKGELSAADYEAAMKKEIALVVEEQEKLDLDVLVHGEAERNDMVEYFGELLSGFAFTQYGWVQSYGSRCVKPPIIFGDVSRPEAMTVAWSTYAQSLTKRPMKGMLTGPVTILQWSFVRNDIPRSTVCKQIALALNDEVLDLEKAGIKVIQIDEPAIREGLPLKRADWDAYLNWAGESFRLSSAGCEDSTQIHTHMCYSEFNDILPAIAAMDADVITIETSRSDMELLTAFGEFQYPNDIGPGVYDIHSPRVPTEAEVEHLLRKAIEVVPVERLWVNPDCGLKTRGWKETLEQLQVMMNVTRKLRAELAKEGHHHHHH”, the “soluble on expression in E. coli” value was “not soluble”.
For “MDVLEISKKILHEGPVCDHCMGRQFAKLSTGLSNRERGQAVKLALALEGDRIYKSENDDSLLKELAPCSALARKTLRIEGENEQCWVCLDQFKKLDFWAEEAAKALEGLEYSTFLVGTKVSGLLSENEEILWAEAGTAYAEQLKTELNREVGKRIAERVNKEVDFENPDIVITLDLATNKFELQVRSVYIYGRYLKKVRGIPQTRWPCRKCRGKGCEKCGFTGKQYPESVDELIKGPVVEAFEAVDTAFHGSGREDIDALMLGSGRPFVVEAKSPVKRSADLEALAAKINENAAGKVEVRDLRFVEKGMIETLKSSKADKTYKLKVTFKEPVSEEKLKSCLESLNGTEIAQQTPKRVVHRRADLIRKRYVHSITLNELTDDGYAYITVNCEGGLYVKELISGDEGRTNPSLTGLLGIPALVEDLDVVNVEILEHHHHHH”, the “soluble on expression in E. coli” value was “soluble”.
With “NFIYAHLNRIIRRDDLNMIYIAGPGHGGPALVANTYLEGTYSEHYPDISQDIQGMKHLFRQFSFPGGIGSHATPEIPGSIHEGGELGYALSHAFGAVFDNPDLIAACVVGDGEAETGPLATAWHSNKFLNPVHDGAVLPILHLNGYKIANPTILARISREELDQLFQGYGYQPYIVEGEDPLTMHQLMA” the “soluble on expression in E. coli” value was “not soluble”.
With “MTDAGSSFCPECGDPVDSVGGDGATRREQSLCDSCYFAAFDLVDAPDTIEVMVCARCGAVHRGNRWVDIGADDYVDVAVAETTEALGVHLEAEDVDWEVRPEKLDDNTVRMHATFTGVVRDTHRTEQVAVTVKVSRQTCQRCGRIAGESYASTVQVRAVGRDPTSEETDRAAELAHRIVADMEATGDREAFVTEIGDAESGTDIKLSTTKIGLKLARKLVEEFGGDFEDHETLITEDDDGNEVYRVTYAVRLPEFVPGDVVDIAADDGGPVLVQSNHGNLKGVRVTTGEPYEASFEDGDSPDARKLGAVADATEATVVTVEDDAAIQILDPDTYEAQTVARPDYVDPDASTVPALKSRAGLHVLPDALEHHHHHH” the “soluble on expression in E. coli” value was “soluble”.
In the case of “MVEEAERIALISHTAPDGDSVGSSIGFAAMLREKGKSHISVIVPDDIPQYLYCIPGANKVIVHETHPSEAEKALAEADLVFCMDFNAPHRVAGLQSALESSSAPKVLIDHHLYPADIFTLSFSYPPLSSTSELVLRLAKAIGMESYLTQDAATALMTGILTDTGVFSYSSSDPDLYLLVADLMRAGADKDTIIRNTFQQNSEGKMRMQGYVLYEKMTLLPEMGVAYFTLSAEELVRFHNRTGDTDGLANLPLDIAGIEAVCFLREDKNQIKLSFRSTGNYPVNTLAENFGGGGHKNAAGGEFQGSLQEATEKLLKIWKDFNPKNYNNKNQQLEHHHHHH”, the “soluble on expression in E. coli” value is reported as “soluble”.
With “MNNHFKCIGIVGHPRHPTALTTHEMLYRWLCDQGYEVIVEQQIAHELQLKNVPTGTLAEIGQQADLAVVVGGDGNMLGAARTLARYDINVIGINRGNLGFLTDLDPDNALQQLSDVLEGRYISEKRFLLEAQVCQQDRQKRISTAINEVVLHPGKVAHMIEFEVYIDETFAFSQRSDGLIISTPTGSTAYSLSAGGPILTPSLDAITLVPMFPHTLSARPLVINSSSTIRLRFSHRRSDLEISCDSQIALPIQEGEDVLIRRCDYHLNLIHPKDYSYFNTLSTKLGWSKKLFMAGDPLEHHHHHH” the “soluble on expression in E. coli” value was “not soluble”.
With “MGSDKIHHHHHHVARLNAKQMEVFVAVMTHGSITAAGQRLNVSQPAVSRMIERFEQEAGFVAFERRRGKLVPTPEAEIFFAEVSQVYRGLDYLNEVAREIGTTRRGYLRVGVFPAFAEGWITERITRYVAGREELLTSLEPMSTDSVIEAVSRQTIDLGIALRASDREGLRSEEISSSEIVCILPKGHRLTGRPVLQPTDLSGEDFISMAAKVKARTSIDAVFDSSGVERRIRAETPWASTVCHMVAHGLGVGLVIRESAFEFAHLGYHIAAFKPRIDYRAYLITSTARPLSTAAKGFRDMLLLEFNQAKKAPRASKRWPT” the “soluble on expression in E. coli” value was “not soluble”.
For “MGSDKIHHHHHHMSSKAEKDIKWGIAPIGWRNDDIPSIGKDNNLQQLLSDIVVAGFQGTEVGGFFPGPEKLNYELKLRNLEIAGQWFSSYIIRDGIEKASEAFEKHCQYLKAINAPVAVVSEQTYTIQRSDTANIFKDKPYFTDKEWDEVCKGLNHYGEIAAKYGLKVAYHHHMGTGIQTKEETDRLMANTDPKLVGLLYDTGHIAVSDGDYMALLNAHIDRVVHVHFKDVRRSKEEECRAKGLTFQGSFLNGMFTVPGDGDLDFKPVYDKLIANNYKGWIVVEAEQDPSKANPLEMAQIAHRYIKQHLIEN”, the “soluble on expression in E. coli” value was “not soluble”.
For “MSVETILVVGGGISGITTAVEAAEVGYNTVLVEKKPYLGGRAAQLNKYFPKLCPPYCGLEMNFRRIKPNPKITVYTMTEVESVSGQEGNYSVRLKVSPRFVNEKCTACNACAEACPVERPNEFNFGMDKTKAAYLPHVLSYPMRYVIDRDACKDNSCDKCVKACKYNAIDLNMKPQTIEMKVGSIVYATGWNPYDATRMDNLGFGRVKNVITNMMMERLAAPNGPTGGKLLRPSDNKEVKKVVFVQCAGSRDENHLNYCSSICCMASLKQATYVRERIPDSQVVVAYIDLRAPGKYEEFLNKVEADANVKLVKGKVAKIEEDKATGGVILEFEDVEGGGKRHEHADMAVLATGMEPCVKANSMLSFEENGFINGGSAAGIYSTGVAKRPSDVTTAIQDATGMALKSIQSLVRSLEHHHHHH”, the “soluble on expression in E. coli” value was “not soluble”.
With “MTATATEGAKPPFVSRSVLVTGGNRGIGLAIAQRLAADGHKVAVTHRGSGAPKGLFGVEVDVTDSDAVDRAFTAVEEHQGPVEVLVSNAGLSADAFLMRMTEEKFEKVINANLTGAFRVAQRASRSMQRNKFGRMIFIGSVSGLWGIGNQANYAASKAGVIGMARSIARELSKANVTANVVAPGYIDTDMTRALDERIQQGALQFIPAKRVGTPAEVAGVVSFLASEDASYISGAVIPVDGGMGMGH” the “soluble on expression in E. coli” value was “soluble”.
With “GSSSGGGSSSSGTSSAFSSYFNNKVGIPQEHVDHDDFDANQLLNKINE” the “soluble on expression in E. coli” value was “soluble”.
In the case of “MSGLIPAHGLSFRVDASTLTGQSSLLRASLGLDDVHLQVSAITEVKSVFVADAFDRGLVTVTADKEIAIWFPPNSATEQELFVRTLSAAMNGDGPIPQPVPHLDFVAVDVETTNSDWGSICQIGAAKVRDGHVVETKEWLCTPPGDLNSFDEANIAIHGITADMVATAPSFAECYDQFADFAGDLPLAAHNAQFDMTAFLRATQAADIRLRTTNFGCSLAAARAAHLPIANHKLPTVSQHLHVELRNHHNACADAEACAGILIALTQRLNTEITDFTSAFNMLGFHTGQLSDARVYPVLKVRGASSTPASPDSAAPAIQTPPAEKPRKATKAARAPWSKVATPETIPDPNPDADPQGRLFGQSVTLSGDFAPYDKGELWAGIANQGGIIGKNVTKKTTILVCGPWDKPTSKQKRAEELRAKGQEIDLWTQEDLFAQLGLNPEDEQPPF”, the “soluble on expression in E. coli” value is reported as “not soluble”.
In the case of “MSLQIKDEILSLLKRGKNLLAFSYGSDSSVLFYLLMQEKIDFDLVMINYKTRKNSDLEELKAKELALKFHKKIFIKHAPKFQSNFEKKARDFRYDFFEKICLEQGYDHLILAHHLNDQFEWFLMQLSRGAGLAEILGMQECEKRSNYTLLRPLLFISKDEISSFLKEKDIFYFHDESNENEKYFRNYIRKNFSNAFVSEFHQGLKRSFSYLDEDRKKLYDFENIKEIQGLLICPKNESLIARAVKMKGLLLSTAQRKELLKGDCVLGGKIALAYKNEQAIVFEYETCQKLPKNFKEECRIAKIPRLLRAYLYNHKIDISSLSEGHHHHHH”, the “soluble on expression in E. coli” value is reported as “soluble”.
